# According to paper PMC6275079:
# Biological target: caveolin-1 (rat (endogenous in cerebellar granule neurons)) (UniProt P41350)
# Experiment: co-IP; anti-caveolin-1 (sc-894) on ImmunoCruz IP/WB Optima matrix; 400 µg of CGN lysate treated with 1% Triton X-100 for 30 min, incubated overnight at 4 °C, washed with Tris-buffered saline; PKA and CaMK-II detected by Western blot in precipitate and supernatant, percent by densitometry
# UniProt P41350, sequence (P41350 whole entry): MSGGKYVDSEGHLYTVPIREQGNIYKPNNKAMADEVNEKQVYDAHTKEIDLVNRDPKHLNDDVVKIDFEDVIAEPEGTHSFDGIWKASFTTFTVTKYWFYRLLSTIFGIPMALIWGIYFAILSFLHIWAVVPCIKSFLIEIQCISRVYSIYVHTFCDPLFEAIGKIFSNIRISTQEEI
substance,measurement,value
calmodulin-dependent protein kinase II (from UniProt P11275 1-478) (enzyme),percentage of coimmunoprecipitation with caveolin-1,39%
protein kinase A (from UniProt P27791 1-351) (enzyme),percentage of coimmunoprecipitation with caveolin-1,16%
